In article PMC4449276:

Target: chaperonin-containing TCP-1 (CCT), bovine (bovine) (UniProt Q32L40)
Test: native gel or EMSA

percent of the CCT binding of Hsc70 [%] | percent of the wild-type CCT binding [%] | Substance
64 | – | DnaK_(Hsc70-185–190) (DnaK with T185GNRTI190 exchanged by Hsc70 V189GAERNV195) (from UniProt P0A6Y8 1-638) (natural protein)
– | 18 | Hsc70ΔC_(DnaK189–192) (Hsc70ΔC with V189GAE192 changed to DnaK T185GN187) (from UniProt P19120 1-554) (domain or fragment)
– | 6 | Hsc70ΔC_(DnaK189–195) (Hsc70ΔC with V189GAERNV195 substituted with DnaK TGNRTI) (from UniProt P19120 1-554) (domain or fragment)
